This note sets out measurements from patent publication US20240226230A1 (MAYO FOUNDATION FOR MEDICAL EDUCATION AND RESEARCH, published 2024).

Where no end group is shown, it is not given here.

First the molecules themselves.
T1: endogenous Nup62 (human, UniProt P37198 2-522)
T1 construct: Detected with anti-Nup62
T1 sequence (looked up): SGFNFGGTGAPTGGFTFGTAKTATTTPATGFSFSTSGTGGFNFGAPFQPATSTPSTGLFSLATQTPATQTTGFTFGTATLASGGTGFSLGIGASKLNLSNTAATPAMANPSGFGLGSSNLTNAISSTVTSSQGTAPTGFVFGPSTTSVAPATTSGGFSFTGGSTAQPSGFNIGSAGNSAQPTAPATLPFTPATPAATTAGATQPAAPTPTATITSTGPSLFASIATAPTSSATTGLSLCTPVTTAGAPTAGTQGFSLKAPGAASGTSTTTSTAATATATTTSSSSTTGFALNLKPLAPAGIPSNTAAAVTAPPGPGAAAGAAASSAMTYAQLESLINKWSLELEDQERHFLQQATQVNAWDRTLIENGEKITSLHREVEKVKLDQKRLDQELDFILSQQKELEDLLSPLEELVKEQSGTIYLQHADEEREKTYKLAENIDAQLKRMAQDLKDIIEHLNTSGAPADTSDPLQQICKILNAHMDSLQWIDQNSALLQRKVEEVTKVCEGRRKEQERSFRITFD

T2: endogenous Nup50 (human, UniProt Q9UKX7 1-468, limits assumed)
T2 construct: Detected with anti-Nup50
T2 sequence (looked up): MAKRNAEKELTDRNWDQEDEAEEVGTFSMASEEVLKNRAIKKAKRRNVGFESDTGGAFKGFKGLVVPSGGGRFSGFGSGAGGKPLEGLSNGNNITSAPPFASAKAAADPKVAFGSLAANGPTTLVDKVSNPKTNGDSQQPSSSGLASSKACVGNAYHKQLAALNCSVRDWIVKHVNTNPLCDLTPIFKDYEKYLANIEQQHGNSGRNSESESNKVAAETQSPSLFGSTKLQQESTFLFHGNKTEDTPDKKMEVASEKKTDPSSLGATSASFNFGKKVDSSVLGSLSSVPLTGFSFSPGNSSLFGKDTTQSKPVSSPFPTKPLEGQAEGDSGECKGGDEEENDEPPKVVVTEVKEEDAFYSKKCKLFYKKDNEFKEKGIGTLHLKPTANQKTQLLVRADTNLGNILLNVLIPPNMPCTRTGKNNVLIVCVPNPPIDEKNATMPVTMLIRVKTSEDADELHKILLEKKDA

B1: GFP-KPNB1 H1-4 (receptor)
chain: GGGSGGGSGGGSMELITILEKTVSPDRLELEAAQKFLERAAVENLPTFLVELSRVLANPGNSQVARVAAGLQIKNSLTSKDPDIKAQYQQRWLAIDANARREVKNYVLQTLGTETYRPSSASQCVAGIACAEIPVNQWPELIPQLVANVTNPNSTEHMKESTLEAIGYICQDIDPEQLQ
notes: not shown: GFP/EGFP tag (pEGFP-C1, Clontech)
B2: GFP-KPNB1 H1-3 (receptor)
chain: GGGSGGGSGGGSMELITILEKTVSPDRLELEAAQKFLERAAVENLPTFLVELSRVLANPGNSQVARVAAGLQIKNSLTSKDPDIKAQYQQRWLAIDANARREVKNYVLQTLGTETYRPSSASQCVAGIACAEIPVNQWP
notes: as for B1
B3: GFP-KPNB1 H1-9 (receptor)
chain: GGGSGGGSGGGSMELITILEKTVSPDRLELEAAQKFLERAAVENLPTFLVELSRVLANPGNSQVARVAAGLQIKNSLTSKDPDIKAQYQQRWLAIDANARREVKNYVLQTLGTETYRPSSASQCVAGIACAEIPVNQWPELIPQLVANVTNPNSTEHMKESTLEAIGYICQDIDPEQLQDKSNEILTAIIQGMRKEEPSNNVKLAATNALLNSLEFTKANFDKESERHFIMQVVCEATQCPDTRVRVAALQNLVKIMSLYYQYMETYMGPALFAITIEAMKSDIDEVALQGIEFWSNVCDEEMDLAIEASEAAEQGRPPEHTSKFYAKGALQYLVPILTQTLTKQDENDDDDDWNPCKAAGVCLMLLATCCEDDIVPHVLPFIKEHIKNPDWRYRDAAVMAFGCILEGP
notes: also called N-terminal half of KPNB1 (HEAT repeats 1-9); not shown: GFP/EGFP tag (pEGFP-C1, Clontech)
B4: GFP-KPNB1 H1-5 (receptor)
chain: GGGSGGGSGGGSMELITILEKTVSPDRLELEAAQKFLERAAVENLPTFLVELSRVLANPGNSQVARVAAGLQIKNSLTSKDPDIKAQYQQRWLAIDANARREVKNYVLQTLGTETYRPSSASQCVAGIACAEIPVNQWPELIPQLVANVTNPNSTEHMKESTLEAIGYICQDIDPEQLQDKSNEILTAIIQGMRKEEPSNNVKLAATNALLNSLEFTKANF
notes: as for B1
B5: GFP-KPNB1 H1-6 (receptor)
chain: GGGSGGGSGGGSMELITILEKTVSPDRLELEAAQKFLERAAVENLPTFLVELSRVLANPGNSQVARVAAGLQIKNSLTSKDPDIKAQYQQRWLAIDANARREVKNYVLQTLGTETYRPSSASQCVAGIACAEIPVNQWPELIPQLVANVTNPNSTEHMKESTLEAIGYICQDIDPEQLQDKSNEILTAIIQGMRKEEPSNNVKLAATNALLNSLEFTKANFDKESERHFIMQVVCEATQCPDTRVRVAALQNLVKIMSLYY
notes: as for B1
B6: GFP-KPNB1 H1-7 (receptor)
chain: GGGSGGGSGGGSMELITILEKTVSPDRLELEAAQKFLERAAVENLPTFLVELSRVLANPGNSQVARVAAGLQIKNSLTSKDPDIKAQYQQRWLAIDANARREVKNYVLQTLGTETYRPSSASQCVAGIACAEIPVNQWPELIPQLVANVTNPNSTEHMKESTLEAIGYICQDIDPEQLQDKSNEILTAIIQGMRKEEPSNNVKLAATNALLNSLEFTKANFDKESERHFIMQVVCEATQCPDTRVRVAALQNLVKIMSLYYQYMETYMGPALFAITIEAMKSDIDEVALQGIEFWSNVCDEEMDLAIEASEAAEQGRPP
notes: as for B1
B7: GFP-KPNB1 H1 (receptor)
chain: {GFP}-GGGSGGGSGGGSMELITILEKTVSPDRLELEAAQKFLERAAVEN
modifications: also: GFP tag fused N-terminally, not in chain, (GGGS)3 linker in chain
notes: as for B1
B8: GFP-KPNB1 H1-8 (receptor)
chain: GGGSGGGSGGGSMELITILEKTVSPDRLELEAAQKFLERAAVENLPTFLVELSRVLANPGNSQVARVAAGLQIKNSLTSKDPDIKAQYQQRWLAIDANARREVKNYVLQTLGTETYRPSSASQCVAGIACAEIPVNQWPELIPQLVANVTNPNSTEHMKESTLEAIGYICQDIDPEQLQDKSNEILTAIIQGMRKEEPSNNVKLAATNALLNSLEFTKANFDKESERHFIMQVVCEATQCPDTRVRVAALQNLVKIMSLYYQYMETYMGPALFAITIEAMKSDIDEVALQGIEFWSNVCDEEMDLAIEASEAAEQGRPPEHTSKFYAKGALQYLVPILTQTLTKQDENDDDDDWNPCKAAGVCLMLLATCCED
notes: also called GFP-KPNB1 H1-8^WT; not shown: GFP/EGFP tag (pEGFP-C1, Clontech)
B9: GFP-KPNB1 H1-2 (receptor)
chain: GGGSGGGSGGGSMELITILEKTVSPDRLELEAAQKFLERAAVENLPTFLVELSRVLANPGNSQVARVAAGLQIKNSLTSKDPD
notes: as for B1

The target in the first assay is endogenous Ran (human, UniProt P62826 2-216). The assay is described as follows: co-IP of GFP-tagged KPNB1 truncations, western blot. The text has this:
(§1) FIG. 21A) Schematic domain structure of KPNB1. KPNB1 is comprised of 19 HEAT repeats (H1-19). RanGTP and importin-α interact with H1-8 and H8-19, respectively. FG-Nups bind to two regions of KPNB1, H5-7 and H14-16. FIG. 21B) Lysates from HEK293T cells expressing GFP, GFP-KPNB1 full-length (FL), N-terminal fragments of KPNB1 (H1-9 . . . H1) or the C-terminal fragment of KPNB1 (H10-19) were subjected to immunoprecipitation with GFP-Trap magnetic beads. Whole cell lysates (input) and immunoprecipitates (IP) were subjected to western blot analysis using indicated antibodies. KPNB1 H1-8, the smallest fully active KPNB1 fragment in reducing TDP-43 aggregation, strongly interacts with FG-Nups and Ran, and weakly with importin-al in comparison with full-length KPNB1. FIG. 21C) (Top) Schematic domain structure of KPNB1 H1-8^mNIS harboring four missense mutations (1178A, F217A, Y255A, I263R) in the nucleoporin-interacting site (NIS). (Bottom) Lysates from HEK293T cells expressing GFP, GFP-KPNB1 H1-8^WT or H1-8^mNIS were subjected to immunoprecipitation with GFP-Trap magnetic beads. Whole cell lysates (input) and immunoprecipitates (IP) were subjected to western blot analysis using indicated antibodies. […] Hoechst staining was used to outline nuclei. Scale bar: 5 μm. […] Statistical analysis was performed using one-way ANOVA and Bonferroni's post hoc test (**p<0.01, ***p<0.001, n=4). FIG. 21F) IF of HEK293T cells co-expressing GFP-(GR)₁₀₀ with an empty plasmid (ctrl), FLAG-tagged KPNB1 H1-8^WT or H1-8^mNIS and stained for endogenous TDP-43. Unlike KPNB1 H1-8^mNIS, KPNB1 H1-8^WT prevents the sequestration of endogenous TDP-43 in cytoplasmic GR aggregates. Arrowheads point to cytoplasmic GR aggregates. Hoechst staining was used to outline nuclei. Scale bar: 5 μm.
On the technique in general: A western blot detects proteins with antibodies after separation by electrophoresis.
For the molecule B1, the binding result was “no binding”.
For B2, the binding result was “no binding”.
As for B3, the binding result was “binds”.
On the same count and under the same terms, in the case of B4 it was “no binding”.
Still for that read-out and setting: the result for B5 reads “no binding”; that for B6, “no binding”.
Still for that read-out and setting: in the case of B7 it was “no binding”.
With B8, the binding result is “binds”.
The same measure, in the same setting: the result for B9 reads “no binding”.

In a further assay the target is endogenous importin-α1 (human, UniProt P52292 2-529). The description is as above.
From the text: as §1
In the case of B1, the binding result is “no binding”.
Still for that read-out and setting: the result for B2 reads “no binding”; that for B3, “binds”.
For B4, the binding result is recorded as “no binding”.
Same read-out and setting: in the case of B5 it was “no binding”; in that of B6, “no binding”; in that of B7, “no binding”.
With B9, the binding result is on record as “no binding”.

The target in another assay is T1, endogenous Nup62. The assay is described as above.
From the text: as §1
B1: the binding result was “no binding”.
As for B2, the binding result was “no binding”.
Consider B3, for which the binding result was “binds”.
With B4, the binding result is “no binding”.
For the molecule B5, the binding result is “no binding”.
Turning to B6, the binding result is “no binding”.
Still for that read-out and setting: the result for B7 reads “no binding”; that for B8, “binds”; that for B9, “no binding”.

Another assay concerns the target T2, endogenous Nup50. The assay is described as above.
From the text: as §1
For B1, the binding result is recorded as “no binding”.
Consider B2, for which the binding result is “no binding”.
As for B3, the binding result is reported as “binds”.
As to B4, the binding result is given as “no binding”.
As to B5, the binding result was “no binding”.
Regarding B6, the binding result is “no binding”.
The same measure, in the same setting: the result for B7 reads “no binding”.
On the same count and under the same terms, in the case of B8 it was “binds”.
The same measure, in the same setting: in the case of B9 it was “no binding”.
